The target of this assay is PCNA3_(N106R)-P450cam fusion protein (Sulfolobus solfataricus | Pseudomonas putida).

As for PCNA2-G4S(P5)4G4S-PdX, the substrate-dependent O2 consumption rate (monooxygenase activity) of PUPPET-P4 at 18 nM complex, 25°C was 6.5 µM/min.
